The values below come from patent US20230137351A1.

For this assay, the target named is human beta-Klotho/FGFR1c complex on stable AM-1D cells (human) (UniProt Q86Z14).
Chain of UniProt Q86Z14 (Q86Z14 whole entry, chain 1 of 2): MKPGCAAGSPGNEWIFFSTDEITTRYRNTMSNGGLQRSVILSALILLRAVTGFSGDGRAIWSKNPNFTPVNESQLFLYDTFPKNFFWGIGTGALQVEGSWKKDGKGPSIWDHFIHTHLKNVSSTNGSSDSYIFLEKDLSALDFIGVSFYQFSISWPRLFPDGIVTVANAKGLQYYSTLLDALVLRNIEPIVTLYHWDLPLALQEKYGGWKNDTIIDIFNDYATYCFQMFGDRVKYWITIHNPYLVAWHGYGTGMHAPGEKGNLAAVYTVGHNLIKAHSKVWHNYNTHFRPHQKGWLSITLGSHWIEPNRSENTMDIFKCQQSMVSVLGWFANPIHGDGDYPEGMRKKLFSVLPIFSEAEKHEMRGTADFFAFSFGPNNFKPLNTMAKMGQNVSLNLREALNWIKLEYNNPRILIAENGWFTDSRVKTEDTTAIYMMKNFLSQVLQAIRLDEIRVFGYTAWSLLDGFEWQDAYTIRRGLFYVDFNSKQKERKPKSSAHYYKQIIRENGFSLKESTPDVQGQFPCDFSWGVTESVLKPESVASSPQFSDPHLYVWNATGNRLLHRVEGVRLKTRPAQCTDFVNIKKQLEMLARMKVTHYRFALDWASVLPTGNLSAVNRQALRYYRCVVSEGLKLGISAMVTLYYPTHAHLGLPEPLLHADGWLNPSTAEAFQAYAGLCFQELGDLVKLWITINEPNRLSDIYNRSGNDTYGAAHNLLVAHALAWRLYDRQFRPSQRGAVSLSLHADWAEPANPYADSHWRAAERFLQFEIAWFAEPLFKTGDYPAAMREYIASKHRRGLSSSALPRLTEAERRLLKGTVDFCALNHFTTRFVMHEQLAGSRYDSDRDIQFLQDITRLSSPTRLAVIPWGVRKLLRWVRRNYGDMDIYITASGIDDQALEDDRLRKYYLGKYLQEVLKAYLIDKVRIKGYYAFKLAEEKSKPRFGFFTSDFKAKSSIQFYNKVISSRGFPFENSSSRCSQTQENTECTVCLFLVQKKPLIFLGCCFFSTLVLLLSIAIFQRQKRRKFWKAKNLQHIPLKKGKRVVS
Chain of UniProt Q86Z14 (P11362 22-822, chain 2 of 2, further chain): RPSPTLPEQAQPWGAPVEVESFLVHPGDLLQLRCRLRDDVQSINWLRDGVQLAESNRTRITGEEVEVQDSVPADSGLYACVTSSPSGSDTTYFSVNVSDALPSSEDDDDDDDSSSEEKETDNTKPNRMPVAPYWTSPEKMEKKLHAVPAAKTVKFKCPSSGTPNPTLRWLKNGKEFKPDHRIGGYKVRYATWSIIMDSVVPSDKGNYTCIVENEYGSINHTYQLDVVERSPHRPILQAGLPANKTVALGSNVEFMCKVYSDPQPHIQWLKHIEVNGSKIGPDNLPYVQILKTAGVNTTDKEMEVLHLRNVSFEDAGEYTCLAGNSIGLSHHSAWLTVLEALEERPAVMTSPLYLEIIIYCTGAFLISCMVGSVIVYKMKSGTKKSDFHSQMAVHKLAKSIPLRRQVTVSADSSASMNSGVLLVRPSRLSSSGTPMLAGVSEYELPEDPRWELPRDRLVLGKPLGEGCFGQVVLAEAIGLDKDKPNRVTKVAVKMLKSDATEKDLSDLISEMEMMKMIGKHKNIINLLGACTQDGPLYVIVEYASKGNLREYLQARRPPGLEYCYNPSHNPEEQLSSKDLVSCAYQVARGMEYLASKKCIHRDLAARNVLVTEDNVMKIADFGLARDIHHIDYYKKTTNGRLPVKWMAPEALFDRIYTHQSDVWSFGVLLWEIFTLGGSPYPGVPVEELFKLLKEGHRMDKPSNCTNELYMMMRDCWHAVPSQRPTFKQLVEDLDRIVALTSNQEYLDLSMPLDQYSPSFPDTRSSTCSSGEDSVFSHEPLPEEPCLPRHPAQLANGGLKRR

As for “FGF21 (from UniProt Q9NSA1 29-209) (ligand)”, the adipocyte pERK assay: EC50 (read off the curve) [lower row] turned out to be 0.7 nM.
